According to publication PMC9880813 (Genomics, Proteomics & Bioinformatics, 2021):

Key:
[1] = molecular target: YC157-bFos (UniProt P01100 118-210); assay: split reporter (BiFC, NanoBiT); details: partners not purified
[2] = molecular target: YC157-ΔbFos; assay: split reporter (BiFC, NanoBiT)

Sequence of YC157-bFos (P01100 118-210): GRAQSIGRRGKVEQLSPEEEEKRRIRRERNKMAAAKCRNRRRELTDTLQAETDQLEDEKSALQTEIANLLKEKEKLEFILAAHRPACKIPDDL

B1: YN157-bJun (domain or fragment, UniProt P05412 257-318, looked up)
chain: RKRMRNRIAASKCRKRKLERIARLEEKVKTLKAQNSELASTANMLREQVAQLKQKVMNHVNS
percentage of fluorescent cells, fold over the negative group (YN157-bJun + YC157-ΔbFos) [1]: 7 fold
signal-to-noise ratio of all cells (against YN157-bJun + YC157-ΔbFos) [1]: 33 ratio
signal-to-noise ratio of fluorescent cells (against YN157-bJun + YC157-ΔbFos) [1]: 4 ratio
fluorescence-positive cell ratio [2]: 0.5%
